Results: patent publication US20250059297A1

Tests used:
[1] = biological target: HER2 and TROP2 expressed together on NCI-H292 cells and NCI-N87 cells (human); test: cell-based or functional assay
[2] = biological target: human HER2 (hHER2) on cells (human); test: cell-based or functional assay
[3] = biological target: human HER2 (hHER2) on cells (human); test: flow cytometry, NCI-N87 cells (express HER2 and TROP2)
[4] = biological target: human HER2 (hHER2) on cells (human); test: flow cytometry, NCI-H292 cells (express HER2 and TROP2)

Row | endocytosis, direct detection: MFI [1] | endocytosis, direct detection: Percentage of Positive Population [1] [%] | endocytosis, indirect detection: MFI [1] | endocytosis, indirect detection: Percentage of Positive Population [1] [%] | endocytosis: MFI [2] | endocytosis: Percentage of Positive (%) [2] [%] | endocytosis, direct detection: MFI [2] | endocytosis, direct detection: Percentage of Positive Population [2] [%] | endocytosis, indirect detection: MFI [2] | endocytosis, indirect detection: Percentage of Positive Population [2] [%] | flow cytometry test result (%) [3] [%] | flow cytometry test result (%) [4] [%] | Substance
1 | 4900 | 1.86 | 4920 | 1.88 | 9840 | 1.1 | – | – | – | – | – | – | Isotype control (antibody)
2 | – | – | – | – | 100000 | 97.1 | 15700 | 74.7 | 21000 | 79.5 | – | – | Pertuzumab analog (antibody)
3 | – | – | – | – | 50400 | 88 | 18900 | 82.5 | 23400 | 87.3 | 98.5 | 97.8 | Trastuzumab analog (antibody)
